Earlier results, collected in patent publication US20030134789A1, “Compositions and methods for protecting tissues and cells from damage, and for repairing damaged tissues” (priority 2001, published 2003).

Conditions: humans, an hour after ingesting 200 g of raw peanuts

B1: peanut agglutinin (PNA): dietary lectin found in the blood of humans after ingesting raw peanuts (protein, UniProt P02872 24-273, looked up)
Galactose-binding lectin: AETVSFNFNSFSEGNPAINFQGDVTVLSNGNIQLTNLNKVNSVGRVLYAMPVRIWSSATGNVASFLTSFSFEMKDIKDYDPADGIIFFIAPEDTQIPAGSIGGGTLGVSDTKGAGHFVGVEFDTYSNSEYNDPPTDHVGIDVNSVDSVKTVPWNSVSGAVVKVTVIYDSSTKTLSVAVTNDNGDITTIAQVVDLKAKLPERVKFGFSASGSLGGRQIHLIRSWSFTSTLITTTRRSIDNNEKKIMNMASA
- level in the blood: 1 to 5 µg/mL
